Source: patent publication US20230051715A1 (MABWELL THERAPEUTICS, published 2023)

Columns and labels:
[1] = target: T1, full-length human C1s (produced in house) (human, UniProt P09871 16-688); test: ELISA, plate coated with 200 ng/well HuC1s, OD450nm
T1 construct: Called full-length; Partly auto-cleaved at R422-I423 on blots; also called HuC1s; Hu C1s
T1 sequence: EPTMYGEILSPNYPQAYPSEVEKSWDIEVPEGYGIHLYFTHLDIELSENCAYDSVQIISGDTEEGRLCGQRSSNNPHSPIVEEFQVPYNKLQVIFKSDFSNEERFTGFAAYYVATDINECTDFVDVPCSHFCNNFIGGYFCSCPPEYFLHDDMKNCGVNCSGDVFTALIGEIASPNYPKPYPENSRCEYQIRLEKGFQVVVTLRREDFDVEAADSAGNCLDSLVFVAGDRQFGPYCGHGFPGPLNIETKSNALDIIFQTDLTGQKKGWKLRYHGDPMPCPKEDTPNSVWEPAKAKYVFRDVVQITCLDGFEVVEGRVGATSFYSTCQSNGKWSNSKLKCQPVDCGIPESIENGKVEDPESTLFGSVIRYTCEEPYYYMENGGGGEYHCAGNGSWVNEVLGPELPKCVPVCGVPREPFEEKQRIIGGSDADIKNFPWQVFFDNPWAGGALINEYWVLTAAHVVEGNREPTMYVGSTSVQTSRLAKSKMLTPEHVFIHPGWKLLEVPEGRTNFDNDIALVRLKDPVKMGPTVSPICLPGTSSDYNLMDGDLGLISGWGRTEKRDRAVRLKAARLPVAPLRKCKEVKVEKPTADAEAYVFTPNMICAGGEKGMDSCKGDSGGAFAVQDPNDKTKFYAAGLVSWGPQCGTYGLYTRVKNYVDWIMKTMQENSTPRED
Experimental: The next morning, plates were blocked with SuperBlock T20 blocking buffer (Thermo Scientific 37536) for 1 h with gentle shaking. Then, various concentrations of anti-C1s antibodies diluted in SuperBlock T20 blocking buffer were added to the plates and incubated for 1 h with gentle shaking. Mouse IgG (Sigma-Aldrich I5381) and Human IgG1 (BioXCell BP0297) were used as negative controls. The plates were washed before incubating with HRP conjugated secondary antibodies diluted in SuperBlock T20 blocking buffer (goat anti-mouse IgG (H+L) cross-adsorbed secondary antibody HRP (Invitrogen G-21040) or goat anti-human IgG antibody, HRP conjugate (Millipore AP309P)) for 1 h with gentle shaking. At last, the plates were washed and color developed with ELISA liquid substrate (Sigma-Aldrich), followed by stopping the reaction with addition of the same volume of […] 1M H₂SO₄. Bound antibody was measured by absorbance at OD₄₅₀ₙₘ.

[2] = target: T2, human C1s mutant M12 (G381E & G382E) (human, UniProt P09871 16-688); test: ELISA, plate coated with human C1s mutant M12: G381E, G382E, OD450nm
T2 construct: The entry is the mutant itself
T2 sequence: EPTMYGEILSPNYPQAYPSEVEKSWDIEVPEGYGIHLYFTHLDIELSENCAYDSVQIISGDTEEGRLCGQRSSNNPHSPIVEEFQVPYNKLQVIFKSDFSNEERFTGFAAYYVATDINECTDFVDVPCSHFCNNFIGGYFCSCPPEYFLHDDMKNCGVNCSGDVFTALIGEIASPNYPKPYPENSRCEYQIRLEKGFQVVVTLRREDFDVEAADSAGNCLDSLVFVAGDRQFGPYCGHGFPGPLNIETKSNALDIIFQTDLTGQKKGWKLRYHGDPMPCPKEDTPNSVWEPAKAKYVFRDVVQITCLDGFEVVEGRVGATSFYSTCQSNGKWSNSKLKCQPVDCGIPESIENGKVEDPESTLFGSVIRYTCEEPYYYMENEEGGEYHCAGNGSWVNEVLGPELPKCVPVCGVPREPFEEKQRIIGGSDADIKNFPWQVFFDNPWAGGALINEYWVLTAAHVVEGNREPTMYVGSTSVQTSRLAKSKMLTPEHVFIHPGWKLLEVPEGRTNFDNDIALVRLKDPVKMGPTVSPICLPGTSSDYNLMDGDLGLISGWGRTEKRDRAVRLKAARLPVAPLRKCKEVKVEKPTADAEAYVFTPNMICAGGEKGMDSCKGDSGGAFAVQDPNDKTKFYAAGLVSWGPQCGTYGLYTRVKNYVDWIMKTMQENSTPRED
Experimental: ELISA was carried out by first coating 96-well plates with 200 ng/well of full-length or truncated C1s proteins overnight. The next morning, plates were blocked with SuperBlock T20 blocking buffer (Thermo Scientific 37536) for 1 h with gentle shaking. Then, various concentrations of anti-C1s antibodies diluted in SuperBlock T20 blocking buffer were added to the plates and incubated for 1 h with gentle shaking. Mouse IgG (Sigma-Aldrich 15381) and human IgG1 (BioXCell BP0297) were used as negative controls. The plates were washed before incubating with HRP conjugated secondary antibodies diluted in SuperBlock T20 blocking buffer (goat anti-mouse IgG (H+L) cross-adsorbed secondary antibody HRP (Invitrogen G-21040) or goat anti-human IgG antibody, HRP conjugate (Millipore AP309P)) for 1 h with gentle shaking. At last, the plates were washed and color developed with ELISA liquid HRP substrate (Sigma-Aldrich), followed by stopping the reaction with addition of 1M H₂SO₄ in the same volume as the ELISA liquid substrate. Bound antibody was measured by absorbance at OD₄₅₀ₙₘ.
Binding of anti-C1s antibodies to mutants M1-M20 of human C1s was measured by ELISA as described in Example 4, and results are shown in FIGS. 6B-6U. All anti-C1s humanized variants including hz2-7(H1L2), hz2-8(H1L2 G80A) and hz2-8(H1L2 G80A/T82A) maintained strong binding properties to the majority (16 out of 20) of C1s mutants including M1 (FIG. 6B), M2 (FIG. 6C), M3 (FIG. 6D). M4 (FIG. 6E), M7 (FIG. 6H), M8 (FIG. 6I), M10 (FIG. 6K), M11 (FIG. 6L), M12 (FIG. 6M), M13 (FIG. 6N), M15 (FIG. 6P), M16 (FIG. 6Q), M17 (FIG. 6R), M18 (FIG. 6S), M19 (FIG. 6T) and M20 (FIG. 6U).

B1: Anti-C1s antibody 2-7 (antibody, human IgG1, kappa, V domains shown)
VH: EVKLEESGGGLVPPGGSMKLSCVASGFTFSNYFMNWVRQSPEKGLEWVAEIRLKFTNYATHYAESVEGRFTISRDDSKSSVYLQMNNLRAEDTGIYYCTRDYGSRNGYFDYWGQGTTLTVSS
VL: DIVMTQAAPSVPVTPGESVSISCRSSKSLLHSNGNTFLYWFLQRPGQSPQLLIYRMSNLASGVPDRFSGSGSGTAFTLRVSRVEAEDVGIYYCMQHLEYPYTFGGGTKLEIKT
notes: the HC/LC entries may hold it too; also called clone 2-7
EC50 [1]: 6 ng/mL

B2: Anti-C1s antibody 2-8 (antibody, V domains shown)
VH: EVQLQQSGAELVRPGALVKLSCKASGFNIKEYYMHWVKQRPEQGLEWIGWIDPENGDTIYDPKFQGKASITADTSSNTAYLQLSSLTSEDTAVYYCARSRLFFAYWGQGTLVTVSA
VL: DIVMTQSHKFMSTSVGDRVSFTCKASQDVRTAVDWYQQKPGQSPKLLIYSASYRYTGVPDRFTGTGSGTDFTFTISSVQAEDLAVYFCQQQYTTPYTFGGGTKLEIKT
notes: the HC/LC entries may hold it too; also called clone 2-8
EC50 [1]: 5 ng/mL

B3: Anti-C1s antibody hz2-7(H1L2) (antibody, V domains shown)
VH: EVQLLESGGGLVQPGGSLRLSCAASGFTFSNYFMNWVRQAPGKGLEWVSEIRLKFTNYATHYADSVKGRFTISRDDSKSTLYLQMNSLRAEDTAVYYCTRDYGSRNGYFDYWGQGTLVTVSS
VL: DIVMTQTPLSLPVTPGEPASISCRSSKSLLHSNGNTFLYWFLQKPGQSPQLLIYRMSNLASGVPDRFSGSGSGTDFTLKISRVEAEDVGVYYCMQHLEYPYTFGGGTKLEIKR
notes: Humanized, human IgG1 / kappa; also called hz2-7(1L2)
EC50 [2]: 5 ng/mL
EC50 [1]: 6 ng/mL

B4: Anti-C1s antibody hz2-8 (H1L2 G80A) (antibody, V domains shown)
VH: QVQLVQSGAEVKKPGASVKVSCKASGFNIKEYYMHWVRQAPEQGLEWMGWIDPENADTIYAQKFQGRVTITADTSTNTAYMELSSLRSEDTAVYYCARSRLFFAYWGQGTLVTVSS
VL: DIQMTQSPKSLSASVGDRVTITCRASQDVRTALDWYQQKPGQSPKLLIYSASYRYSGVPSRFSGSGSGTDFTLTISSLQPEDFATYYCQQQYTTPYTFGQGTKLEIKR
notes: Humanized variant with G80A in HC CDR2 (already in the entry), human IgG1 / kappa
EC50 [2]: 5 ng/mL

B5: Anti-C1s antibody hz2-8 (H1L2 G80A/T82A) (antibody, V domains shown)
VH: QVQLVQSGAEVKKPGASVKVSCKASGFNIKEYYMHWVRQAPEQGLEWMGWIDPENADAIYAQKFQGRVTITADTSTNTAYMELSSLRSEDTAVYYCARSRLFFAYWGQGTLVTVSS
VL: DIQMTQSPKSLSASVGDRVTITCRASQDVRTALDWYQQKPGQSPKLLIYSASYRYSGVPSRFSGSGSGTDFTLTISSLQPEDFATYYCQQQYTTPYTFGQGTKLEIKR
notes: Humanized variant with G80A and T82A in HC CDR2 (already in the entry), human IgG1 / kappa
EC50 [2]: 5 ng/mL
EC50 [1]: 4 ng/mL
